According to patent US20150231240A1, “ANTI-C16ORF54 ANTIBODIES AND METHODS OF USE THEREOF” (priority 2012, published 2015):

How the values were obtained:
[1] = biological target: T1, N-terminal 32 amino acids of huC16orf54 (Homo sapiens, UniProt Q6UWD8); assay: Off-rate screen of hybridoma supernatants on OctetQK384 (biolayer interferometry); format: binding; conditions: calculated off-rate
T1 sequence (Q6UWD8 1-32 limits assumed): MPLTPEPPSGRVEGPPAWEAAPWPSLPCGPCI
Method: Eight anti-huC16orf54 monoclonal antibodies were further screened for binding and subsequent off-rate analysis using the OctetQK384® sytem (ForteBio). Hybridoma supernatants were screened for association to and dissocation from streptavidin sensors coated with the N-terminal 32 amino acids of huC16orf54 coupled to biotin, and the calculated offrates (kdis) are shown in Table 31. Cloned hybridomas with […] off-rates were carried forward for antibody purification.

human C16orf54 = biological target: T2, human C16orf54 (Homo sapiens, UniProt Q6UWD8); assay: Flow cytometry reactivity with sarcoma cells expressing human C16orf54 (fold change over isotype); format: binding; conditions: for binding to human C16orf54 (flow cytometry): sarcoma cells expressing human C16orf54, 10 μg/ml antibody
T2 construct: expressed in transfected cells; host or cells: murine sarcoma cells (D42M1-huC16orf54)
T2 sequence (Q6UWD8 1-224): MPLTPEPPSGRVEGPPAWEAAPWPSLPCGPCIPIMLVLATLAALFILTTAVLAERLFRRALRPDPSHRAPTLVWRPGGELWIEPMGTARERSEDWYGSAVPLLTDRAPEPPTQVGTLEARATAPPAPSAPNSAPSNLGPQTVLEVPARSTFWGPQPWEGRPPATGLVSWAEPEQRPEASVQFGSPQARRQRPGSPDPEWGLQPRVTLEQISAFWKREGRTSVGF
Method: Anti-C16orf54 antibodies which bound to human C16orf54 were tested for their reactivity with human C16orf54 and their crossreactivity with C16orf54 from cynomolgous monkeys (cyno C16orf54) using flow cytometry. Sarcoma cells transfected with and expressing human C16orf54 or cyno C16orf54 were washed with PBS with 0.1% BSA, incubated with FcX receptor blocking solution (BioLegend) for 15 minutes, incubated with 10 μg/ml of anti-C16orf54 antibody for 1 hour at 4° C., washed twice with PBS with 0.1% BSA, incubated with 20 μg/ml of R-Phycoerythrin-AffiniPure F(ab′)2 Fragment Goat Anti-Mouse IgG, Fcγ Fragment Specific (Jackson ImmunoResearch) for 30 minutes at 4° C., washed twice with PBS with 0.1% BSA, incubated with the viability dye TO-PRO-3 iodide (Life Technologies), and immediately analyzed on a MACSQuant Analyzer instrument (Miltenyi). For each cell line and anti-C16orf54 antibody, a fold change was derived by dividing the median fluorescence intensity for Phycoerythrin in the live cell population for the anti-C16orf54 antibody by the median fluorescence intensity for Phycoerythrin in the live cell population for the IgG isotype control antibody.

[2] = system: human C16orf54 extracellular domain peptides; assay: C16orf54 peptide ELISA, human extracellular domain peptides; format: binding; conditions: human, cyno, or mouse extracellular domain peptides, not told apart; 10 μg/ml antibody
Method: Anti-C16orf54 antibodies which bind to human C16orf54, including antibodies that are crossreactive with cyno C16orf54, were tested for their binding to various peptides derived from C16orf54 in a peptide ELISA. A 384-well high binding black microplate (Greiner) was incubated with 2 μg/ml of protein (human, cyno, or mouse extracellular domain peptides) for 16 hours, incubated for 1 hr with a blocking buffer (PBS with 5% Fetal Bovine Serum), washed four times with TBS with Tween, incubated for 1 hour with 10 μg/ml of anti-C16orf54 antibody, washed four times with TBS with Tween, incubated for 1 hour with 10 μg/ml of Peroxidase-AffiniPure Goat Anti-Mouse IgG, Fcγ Fragment Specific (Jackson ImmunoResearch), washed four times with TBS with Tween, and peroxidase was detected with a luminometer (Molecular Devices) upon addition of SuperSignal® ELISA Pico Chemiluminescent Substrate (Thermo Scientific). The luminescence signal was determined.

[3] = system: human erythroid and myeloid progenitors (normal human bone marrow); assay: Colony forming unit (CFU) progenitor cell assays; format: cell-based; conditions: for BFU-E / CFU-E / CFU-GEMM / CFU-GM / Total CFC / Total Erythroid: colonies after 14 days; for direct effect on colony number or colony size of bone marrow progenitors: 0.032-100 μg/ml added directly into the methylcellulose matrix, 14 days; for indirect effect on colony number or colony size of progenitors: 0.032-100 μg/ml, 24 hours liquid culture, then methylcellulose matrix
Method: Colony forming unit (CFU) assays were performed to establish if there is binding of anti-C16orf54 antibodies to various progenitor cells including: CFU-E: colony forming unit erythroid (erythroid colony forming cells); BFU-E: burst forming unit erythroid (earliest known erythroid precursor cells); CFU-GM: colony forming unit granulocyte/macrophage (granulocyte-macrophage colony forming cells); and CFU-GEMM: colony forming unit granulocyte, erythrocyte, monocyte/macrophage, megakaryocyte (most primitive colony-forming cells). […] Clogenic progenitors of the human erythroid and myeloid lineages were set up in methylcellulose-based medium. All test antibodies and reagents were added to the medium at indicated concentrations. Triplicate cultures were initiated for each condition. Following 14 days in culture myeloid and erythroid colonies were assessed microscopically and scored. For these assays, anti-C16orf54 antibodies were evaluated for their direct and indirect effects on human erythroid and myeloid progenitor proliferation. […] Indirect effects on progenitors were assessed by incubating the cells with these antibodies in a liquid culture for 24 hours and subsequent culture of these cells in the methylcellulose matrix.

Molecule | kdis [1] | binding to C16orf54-expressing cells (dual binders) (human C16orf54) | binding to human C16orf54 (flow cytometry) (human C16orf54) | binding to peptides derived from the extracellular domain of C16orf54 (peptide ELISA) [2] | BFU-E ([3]; 0.032 μg/ml) | CFU-E ([3]; 0.032 μg/ml) | CFU-GM ([3]; 0.032 μg/ml) | Total CFC ([3]; 0.032 μg/ml) | Total Erythroid ([3]; 0.032 μg/ml) | BFU-E ([3]; 0.8 μg/ml) | CFU-E ([3]; 0.8 μg/ml) | CFU-GM ([3]; 0.8 μg/ml) | Total CFC ([3]; 0.8 μg/ml) | Total Erythroid ([3]; 0.8 μg/ml) | BFU-E ([3]; 4 μg/ml) | CFU-E ([3]; 4 μg/ml) | CFU-GM ([3]; 4 μg/ml) | Total CFC ([3]; 4 μg/ml) | Total Erythroid ([3]; 4 μg/ml) | BFU-E ([3]; 20 μg/ml) | further results
R29-7-1C: murine anti-C16orf54 monoclonal antibody, IgG2a; VH SEQ ID NO: 8, VL SEQ ID NO: 10 (antibody, V domains shown, R29-7-1C heavy chain variable region; R29-7-1C light chain variable region) VH: MRVLILLWLFTAFPGILSDVQLQESGPGLVKPSQSLSLTCTVTGYSITSDYAWNWIRQFPGNKLEWMGYISYSGSIRYNPSLKSRISITRDTSKNQFFLQLNSVTTEDTATYYCAREKYDNYYYAMDYWGQGTSVTVSS VL: MDSQAQVLMLLLLWVSGTCGDIVMSQSPSSLAVSVGEKVTLSCKSSQNLLYSTNQKNYLAWYQQKPGQSPKLLIYWASTRESGVPDRFTGSGSGTDFTLTISSVKAEDLAVYYCQQYYSYRTFGGGTKLEIK | 0.0102 s⁻¹ | bind to C16orf54-expressing cells | bind human C16orf54 | bind to the various peptides derived from the extracellular domain (ECD) of C16orf54 | 31 +/− 2 | 8 +/− 2 | 45 +/− 3 | 83 +/− 4 | 38 +/− 4 | 31 +/− 2 | 8 +/− 2 | 42 +/− 4 | 82 +/− 3 | 39 +/− 4 | 32 +/− 2 | 7 +/− 2 | 44 +/− 4 | 82 +/− 6 | 38 +/− 3 | 28 +/− 5 | CFU-GEMM ([3]; 0.032 μg/ml): 1 +/− 1; CFU-GEMM ([3]; 0.8 μg/ml): 1 +/− 1; CFU-E ([3]; 20 μg/ml): 8 +/− 2; CFU-GEMM ([3]; 20 μg/ml): 1 +/− 1; CFU-GM ([3]; 20 μg/ml): 40 +/− 5; Total CFC ([3]; 20 μg/ml): 76 +/− 8; Total Erythroid ([3]; 20 μg/ml): 36 +/− 4; BFU-E ([3]; 100 μg/ml): 30 +/− 3; CFU-E ([3]; 100 μg/ml): 8 +/− 3; CFU-GEMM ([3]; 100 μg/ml): 1 +/− 1; CFU-GM ([3]; 100 μg/ml): 44 +/− 4; Total CFC ([3]; 100 μg/ml): 82 +/− 4; Total Erythroid ([3]; 100 μg/ml): 38 +/− 4; direct effect on colony number or colony size of bone marrow progenitors [3]: no effect on colony number or colony size of bone marrow progenitors; indirect effect on colony number or colony size of progenitors [3]: no effect on colony number or colony size
R29-67-7A: murine anti-C16orf54 monoclonal antibody, IgG2a; VH SEQ ID NO: 12, VL SEQ ID NO: 14 (antibody, V domains shown, R29-67-7A heavy chain variable region; R29-67-7A light chain variable region) VH: MRVLILLWLFTAFPGILSDVQLQESGPGLVKPSQSLSLTCTVTGYSITSDYAWNWIRQFPGNKLEWMGYINYSGRTRYNPSLNSRISLTRDTSTNQFFLQLNSVTTEDTATYYCARENYDYEFYAMDYWGQGTSVTVSS VL: MESQAQVLMLLLLWVSGTCGDIVMSQSPSSLAVSVGEKVTMSCKSSQNLLYSSNQKNYLAWYQQKPGQSPKLLIYWASTRESGVPDRFTGSGSGTDFTLTISSVKAEDLAVYYCQQYYIYRTFGGGTKLEIK | 0.00845 s⁻¹ | bind to C16orf54-expressing cells | bind human C16orf54 | bind to the various peptides derived from the extracellular domain (ECD) of C16orf54 | 28 +/− 2 | 7 +/− 2 | 39 +/− 3 | 74 +/− 4 | 35 +/− 1 | 32 +/− 3 | 7 +/− 2 | 43 +/− 5 | 81 +/− 6 | 38 +/− 5 | 30 +/− 2 | 9 +/− 2 | 43 +/− 2 | 81 +/− 1 | 39 +/− 3 | 33 +/− 3 | CFU-E ([3]; 20 μg/ml): 6 +/− 2; CFU-GEMM ([3]; 20 μg/ml): 1 +/− 1; CFU-GM ([3]; 20 μg/ml): 40 +/− 1; Total CFC ([3]; 20 μg/ml): 79 +/− 4; Total Erythroid ([3]; 20 μg/ml): 39 +/− 3; BFU-E ([3]; 100 μg/ml): 32 +/− 2; CFU-E ([3]; 100 μg/ml): 7 +/− 2; CFU-GM ([3]; 100 μg/ml): 43 +/− 6; Total CFC ([3]; 100 μg/ml): 83 +/− 5; Total Erythroid ([3]; 100 μg/ml): 39 +/− 3; direct effect on colony number or colony size of bone marrow progenitors [3]: no effect on colony number or colony size of bone marrow progenitors; indirect effect on colony number or colony size of progenitors [3]: no effect on colony number or colony size
